Assay results from the supplement of paper PMC5998384.

How the values were obtained:
HeLa Kyoto [1] = test: solubility in G1/S (NP-40 vs SDS abundance) (log2 ratio); higher = more soluble; conditions: cell cycle stage: G1/S
HeLa Kyoto [2] = test: solubility change mitosis vs G1/S (difference of NP-40 vs SDS log2 ratios) (log2 ratio difference); higher = more soluble in mitosis
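Throughout, for solubility change mitosis vs G1/S (difference of NP-40 vs SDS log2 ratios): synchronized HeLa Kyoto cells (double thymidine block for G1/S, nocodazole release for mitosis), protein amounts in NP-40 versus SDS lysates quantified by mass spectrometry, three biological replicates.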
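Throughout, for solubility in G1/S (NP-40 vs SDS abundance): HeLa Kyoto cells arrested at G1/S by double thymidine block, proteins quantified by TMT10plex mass spectrometry in mild NP-40 versus SDS extracts, three biological replicates.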

MAKAGDKSSSSGKKSLKRKAAAEELQEAAGAGDGATENGVQPPKAAAFPPGFSISEIKNKQRRHLMFTRWKQQQRKEKLAAKKKLKKEREALGDKAPPKPVPKTIDNQRVYDETTVDPNDEEVAYDEATDEFASYFNKQTSPKILITTSDRPHGRTVRLCEQLSTVIPNSHVYYRRGLALKKIIPQCIARDFTDLIVINEDRKTPNGLILSHLPNGPTAHFKMSSVRLRKEIKRRGKDPTEHIPEIILNNFTTRLGHSIGRMFASLFPHNPQFIGRQVATFHNQRDYIFFRFHRYIFRSEKKVGIQELGPRFTLKLRSLQKGTFDSKYGEYEWVHKPREMDTSRRKFHL [RPF1]
solubility in G1/S (log2) (HeLa Kyoto [1]): -1.77
solubility change mitosis (log2) (HeLa Kyoto [2]): 0.774

MAKDAGLIEANGELKVFIDQNLSPGKGVVSLVAVHPSTVNPLGKQLLPKTFGQSNVNIAQQVVIGTPQRPAASNTLVVGSPHTPSTHFASQNQPSDSSPWSAGKRNRKGEKNGKGLRHFSMKVCEKVQRKGTTSYNEVADELVAEFSAADNHILPNESAYDQKNIRRRVYDALNVLMAMNIISKEKKEIKWIGLPTNSAQECQNLEVERQRRLERIKQKQSQLQELILQQIAFKNLVQRNRHAEQQASRPPPPNSVIHLPFIIVNTSKKTVIDCSISNDKFEYLFNFDNTFEIHDDIEVLKRMGMACGLESGSCSAEDLKMARSLVPKALEPYVTEMAQGTVGGVFITTAGSTSNGTRFSASDLTNGADGMLATSSNGSQYSGSRVETPVSYVGEDDEEDDDFNENDEDD [TFDP1]
solubility in G1/S (log2) (HeLa Kyoto [1]): 0.136
solubility change mitosis (log2) (HeLa Kyoto [2]): -0.176

MAKSPENSTLEEILGQYQRSLREHASRSIHQLTCALKEGDVTIGEDAPNLSFSTSVGNEDARTAWPELQQSHAVNQLKDLLRQQADKESEVSPSRRRKMSPLRSLEHEETNMPTMHDLVHTINDQSQYIHHLEAEVKFCKEELSGMKNKIQVVVLENEGLQQQLKSQRQEETLREQTLLDASGNMHNSWITTGEDSGVGETSKRPFSHDNADFGKAASAGEQLELEKLKLTYEEKCEIEESQLKFLRNDLAEYQRTCEDLKEQLKHKEFLLAANTCNRVGGLCLKCAQHEAVLSQTHTNVHMQTIERLVKERDDLMSALVSVRSSLADTQQREASAYEQVKQVLQISEEANFEKTKALIQCDQLRKELERQAERLEKELASQQEKRAIEKDMMKKEITKEREYMGSKMLILSQNIAQLEAQVEKVTKEKISAINQLEEIQSQLASREMDVTKVCGEMRYQLNKTNMEKDEAEKEHREFRAKTNRDLEIKDQEIEKLRIELDESKQHLEQEQQKAALAREECLRLTELLGESEHQLHLTRQEKDSIQQSFSKEAKAQALQAQQREQELTQKIQQMEAQHDKTENEQYLLLTSQNTFLTKLKEECCTLAKKLEQISQKTRSEIAQLSQEKRYTYDKLGKLQRRNEELEEQCVQHGRVHETMKQRLRQLDKHSQATAQQLVQLLSKQNQLLLERQSLSEEVDRLRTQLPSMPQSDC [SDCCAG8]
solubility in G1/S (log2) (HeLa Kyoto [1]): 0.52
solubility change mitosis (log2) (HeLa Kyoto [2]): 0.0872

MALLRKINQVLLFLLIVTLCVILYKKVHKGTVPKNDADDESETPEELEEEIPVVICAAAGRMGATMAAINSIYSNTDANILFYVVGLRNTLTRIRKWIEHSKLREINFKIVEFNPMVLKGKIRPDSSRPELLQPLNFVRFYLPLLIHQHEKVIYLDDDVIVQGDIQELYDTTLALGHAAAFSDDCDLPSAQDINRLVGLQNTYMGYLDYRKKAIKDLGISPSTCSFNPGVIVANMTEWKHQRITKQLEKWMQKNVEENLYSSSLGGGVATSPMLIVFHGKYSTINPLWHIRHLGWNPDARYSEHFLQEAKLLHWNGRHKPWDFPSVHNDLWESWFVPDPAGIFKLNHHS [GLT8D2]
solubility in G1/S (log2) (HeLa Kyoto [1]): 0.233
solubility change mitosis (log2) (HeLa Kyoto [2]): -0.357

MALRLLRRAARGAAAAALLRLKASLAADIPRLGYSSSSHHKYIPRRAVLYVPGNDEKKIKKIPSLNVDCAVLDCEDGVAANKKNEARLRIVKTLEDIDLGPTEKCVRVNSVSSGLAEEDLETLLQSRVLPSSLMLPKVESPEEIQWFADKFSFHLKGRKLEQPMNLIPFVETAMGLLNFKAVCEETLKVGPQVGLFLDAVVFGGEDFRASIGATSSKETLDILYARQKIVVIAKAFGLQAIDLVYIDFRDGAGLLRQSREGAAMGFTGKQVIHPNQIAVVQEQFSPSPEKIKWAEELIAAFKEHQQLGKGAFTFQGSMIDMPLLKQAQNTVTLATSIKEK [CLYBL]
solubility in G1/S (log2) (HeLa Kyoto [1]): -0.168
solubility change mitosis (log2) (HeLa Kyoto [2]): 0.0246

MAMVVSSWRDPQDDVAGGNPGGPNPAAQAARGGGGGAGEQQQQAGSGAPHTPQTPGQPGAPATPGTAGDKGQGPPGSGQSQQHIECVVCGDKSSGKHYGQFTCEGCKSFFKRSVRRNLTYTCRANRNCPIDQHHRNQCQYCRLKKCLKVGMRREAVQRGRMPPTQPNPGQYALTNGDPLNGHCYLSGYISLLLRAEPYPTSRYGSQCMQPNNIMGIENICELAARLLFSAVEWARNIPFFPDLQITDQVSLLRLTWSELFVLNAAQCSMPLHVAPLLAAAGLHASPMSADRVVAFMDHIRIFQEQVEKLKALHVDSAEYSCLKAIVLFTSDACGLSDAAHIESLQEKSQCALEEYVRSQYPNQPSRFGKLLLRLPSLRTVSSSVIEQLFFVRLVGKTPIETLIRDMLLSGSSFNWPYMSIQCS [NR2F1]
solubility in G1/S (log2) (HeLa Kyoto [1]): -0.152
solubility change mitosis (log2) (HeLa Kyoto [2]): 0.0314

MAREPRKNAALDAQSAEDQTGLLTVKVEKEEASALTAEVRAPCSPARGPERSRQRFRGFRYPEAAGPREALSRLRELCGQWLQPEMHSKEQILELLVLEQFLTILPGNLQSWVREQHPESGEEVVVLLEYLERQLDEPAPQVPVGDQGQELLCCKMALLTQTQGSQSSQCQPMKALFKHESLGSQPLHDRVLQVPGLAQGGCCREDAMVASRLTPGSQGLLKMEDVALTLTPGWTQLDSSQVNLYRDEKQENHSSLVSLGGEIQTKSRDLPPVKKLPEKEHGKICHLREDIAQIPTHAEAGEQEGRLQRKQKNAIGSRRHYCHECGKSFAQSSGLTKHRRIHTGEKPYECEDCGKTFIGSSALVIHQRVHTGEKPYECEECGKVFSHSSNLIKHQRTHTGEKPYECDDCGKTFSQSCSLLEHHKIHTGEKPYQCNMCGKAFRRNSHLLRHQRIHGDKNVQNPEHGESWESQGRTESQWENTEAPVSYKCNECERSFTRNRSLIEHQKIHTGEKPYQCDTCGKGFTRTSYLVQHQRSHVGKKTLSQ [ZKSCAN4]
solubility in G1/S (log2) (HeLa Kyoto [1]): -0.299
solubility change mitosis (log2) (HeLa Kyoto [2]): 0.361

MARISFSYLCPASWYFTVPTVSPFLRQRVAFLGLFFISCLLLLMLIIDFRHWSASLPRDRQYERYLARVGELEATDTEDPNLNYGLVVDCGSSGSRIFVYFWPRHNGNPHDLLDIKQMRDRNSQPVVKKIKPGISAMADTPEHASDYLRPLLSFAAAHVPVKKHKETPLYILCTAGMRLLPERKQLAILADLVKDLPLEFDFLFSQSQAEVISGKQEGVYAWIGINFVLGRFDHEDESDAEATQELAAGRRRTVGILDMGGASLQIAYEVPTSTSVLPAKQEEAAKILLAEFNLGCDVQHTEHVYRVYVTTFLGFGGNFARQRYEDLVLNETLNKNRLLGQKTGLSPDNPFLDPCLPVGLTDVVERNSQVLHVRGRGDWVSCGAMLSPLLARSNTSQASLNGIYQSPIDFNNSEFYGFSEFFYCTEDVLRIGGRYHGPTFAKAAQDYCGMAWSVLTQRFKNGLFSSHADEHRLKYQCFKSAWMYQVLHEGFHFPYDYPNLRTAQLVYDREVQWTLGAILYKTRFLPLRDLRQEGVRQAHGSWFRLSFVYNHYLFFACILVVLLAIFLYLLRLRRIHHRQTRASAPLDLLWLEEVVPMMGVQVGP [ENTPD7]
solubility in G1/S (log2) (HeLa Kyoto [1]): -0.358
solubility change mitosis (log2) (HeLa Kyoto [2]): 0.145

MARKSNLPVLLVPFLLCQALVRCSSPLPLVVNTWPFKNATEAAWRALASGGSALDAVESGCAMCEREQCDGSVGFGGSPDELGETTLDAMIMDGTTMDVGAVGDLRRIKNAIGVARKVLEHTTHTLLVGESATTFAQSMGFINEDLSTTASQALHSDWLARNCQPNYWRNVIPDPSKYCGPYKPPGILKQDIPIHKETEDDRGHDTIGMVVIHKTGHIAAGTSTNGIKFKIHGRVGDSPIPGAGAYADDTAGAAAATGNGDILMRFLPSYQAVEYMRRGEDPTIACQKVISRIQKHFPEFFGAVICANVTGSYGAACNKLSTFTQFSFMVYNSEKNQPTEEKVDCI
solubility in G1/S (log2) (HeLa Kyoto [1]): 0.0983
solubility change mitosis (log2) (HeLa Kyoto [2]): -0.136

MASEAPSPPRSPPPPTSPEPELAQLRRKVEKLERELRSCKRQVREIEKLLHHTERLYQNAESNNQELRTQVEELSKILQRGRNEDNKKSDVEVQTENHAPWSISDYFYQTYYNDVSLPNKVTELSDQQDQAIETSILNSKDHLQVENDAYPGTDRTENVKYRQVDHFASNSQEPASALATEDTSLEGSSLAESLRAAAEAAVSQTGFSYDENTGLYFDHSTGFYYDSENQLYYDPSTGIYYYCDVESGRYQFHSRVDLQPYPTSSTKQSKDKKLKKKRKDPDSSATNEEKDLNSEDQKAFSVEHTSCNEEENFANMKKKAKIGIHHKNSPPKVTVPTSGNTIESPLHENISNSTSFKDEKIMETDSEPEEGEITDSQTEDSYDEAITSEGNVTAEDSEDEDEDKIWPPCIRVIVIRSPVLQIGSLFIITAVNPATIGREKDMEHTLRIPEVGVSKFHAEIYFDHDLQSYVLVDQGSQNGTIVNGKQILQPKTKCDPYVLEHGDEVKIGETVLSFHIHPGSDTCDGCEPGQVRAHLRLDKKDESFVGPTLSKEEKELERRKELKKIRVKYGLQNTEYEDEKTLKNPKYKDRAGKRREQVGSEGTFQRDDAPASVHSEITDSNKGRKMLEKMGWKKGEGLGKDGGGMKTPIQLQLRRTHAGLGTGKPSSFEDVHLLQNKNKKNWDKARERFTENFPETKPQKDDPGTMPWVKGTLE [AGGF1]
solubility in G1/S (log2) (HeLa Kyoto [1]): -0.292
solubility change mitosis (log2) (HeLa Kyoto [2]): -0.0218

MASGDLYEVERIVDKRKNKKGKWEYLIRWKGYGSTEDTWEPEHHLLHCEEFIDEFNGLHMSKDKRIKSGKQSSTSKLLRDSRGPSVEKLSHRPSDPGKSKGTSHKRKRINPPLAKPKKGYSGKPSSGGDRATKTVSYRTTPSGLQIMPLKKSQNGMENGDAGSEKDERHFGNGSHQPGLDLNDHVGEQDMGECDVNHATLAENGLGSALTNGGLNLHSPVKRKLEAEKDYVFDKRLRYSVRQNESNCRFRDIVVRKEEGFTHILLSSQTSDNNALTPEIMKEVRRALCNAATDDSKLLLLSAVGSVFCSGLDYSYLIGRLSSDRRKESTRIAEAIRDFVKAFIQFKKPIVVAINGPALGLGASILPLCDIVWASEKAWFQTPYATIRLTPAGCSSYTFPQILGVALANEMLFCGRKLTAQEACSRGLVSQVFWPTTFSQEVMLRVKEMASCSAVVLEESKCLVRSFLKSVLEDVNEKECLMLKQLWSSSKGLDSLFSYLQDKIYEV [CDYL2]
solubility in G1/S (log2) (HeLa Kyoto [1]): -1.07
solubility change mitosis (log2) (HeLa Kyoto [2]): 0.436

MASKKLGADFHGTFSYLDDVPFKTGDKFKTPAKVGLPIGFSLPDCLQVVREVQYDFSLEKKTIEWAEEIKKIEEAEREAECKIAEAEAKVNSKSGPEGDSKMSFSKTHSTATMPPPINPILASLQHNSILTPTRVSSSATKQKVLSPPHIKADFNLADFECEEDPFDNLELKTIDEKEELRNILVGTTGPIMAQLLDNNLPRGGSGSVLQDEEVLASLERATLDFKPLHKPNGFITLPQLGNCEKMSLSSKVSLPPIPAVSNIKSLSFPKLDSDDSNQKTAKLASTFHSTSCLRNGTFQNSLKPSTQSSASELNGHHTLGLSALNLDSGTEMPALTSSQMPSLSVLSVCTEESSPPNTGPTVTPPNFSVSQVPNMPSCPQAYSELQMLSPSERQCVETVVNMGYSYECVLRAMKKKGENIEQILDYLFAHGQLCEKGFDPLLVEEALEMHQCSEEKMMEFLQLMSKFKEMGFELKDIKEVLLLHNNDQDNALEDLMARAGAS [UBAP1]
solubility in G1/S (log2) (HeLa Kyoto [1]): 0.435
solubility change mitosis (log2) (HeLa Kyoto [2]): 0.147
